B1: CRYL1 (parent)
chain: RNALENIRKEMKLLEQAGSLKGSL

Variants of: B1
Assay: protein stability index of a GFP-peptide fusion (GPS, HEK-293T) (PSI 1-6); higher = more stable
Details: c terminus: a fixed tail appended
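Further: lentivirally expressed fusions sorted by FACS into six bins by GFP to DsRed ratio, PSI derived from sequencing read proportions per bin multiplied by bin number.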

| Variant | protein stability index |
| --- | --- |
| RNALEPIRKEMKLLEQAGSLKGSL [N6P] | 3.4 |
| RNALEMIRKEMKLLEQAGSLKGSL [N6M] | 2.98 |
| RNALEFIRKEMKLLEQAGSLKGSL [N6F] | 1.68 |
| RNALEEIRKEMKLLEQAGSLKGSL [N6E] | 3.2 |
| RNALETIRKEMKLLEQAGSLKGSL [N6T] | 2.53 |
| RNALECIRKEMKLLEQAGSLKGSL [N6C] | 2.33 |
| RNALEWIRKEMKLLEQAGSLKGSL [N6W] | 2.23 |
| RNALELIRKEMKLLEQAGSLKGSL [N6L] | 2.17 |
| RNALEVIRKEMKLLEQAGSLKGSL [N6V] | 3.03 |
| RNALEGIRKEMKLLEQAGSLKGSL [N6G] | 3.79 |
| RNALEIIRKEMKLLEQAGSLKGSL [N6I] | 2.45 |
| RNALEYIRKEMKLLEQAGSLKGSL [N6Y] | 2.53 |
| RNALEKIRKEMKLLEQAGSLKGSL [N6K] | 3.06 |
| RNALEHIRKEMKLLEQAGSLKGSL [N6H] | 3.38 |
| RNALEAIRKEMKLLEQAGSLKGSL [N6A] | 3.66 |
| RNALEQIRKEMKLLEQAGSLKGSL [N6Q] | 3.03 |
| RNALEDIRKEMKLLEQAGSLKGSL [N6D] | 3.76 |
| RNALESIRKEMKLLEQAGSLKGSL [N6S] | 3.72 |
| RNALPNIRKEMKLLEQAGSLKGSL [E5P] | 3.7 |
| RNALWNIRKEMKLLEQAGSLKGSL [E5W] | 2.69 |
| RNALLNIRKEMKLLEQAGSLKGSL [E5L] | 2.55 |
| RNALFNIRKEMKLLEQAGSLKGSL [E5F] | 2.5 |
| RNALKNIRKEMKLLEQAGSLKGSL [E5K] | 2.7 |
| RNALYNIRKEMKLLEQAGSLKGSL [E5Y] | 1.97 |

| Variant | protein stability index |
| --- | --- |
| RNALNNIRKEMKLLEQAGSLKGSL [E5N] | 2.46 |
| RNALCNIRKEMKLLEQAGSLKGSL [E5C] | 2.98 |
| RNALDNIRKEMKLLEQAGSLKGSL [E5D] | 3.85 |
| RNALMNIRKEMKLLEQAGSLKGSL [E5M] | 3 |
| RNALRNIRKEMKLLEQAGSLKGSL [E5R] | 3.06 |
| RNALANIRKEMKLLEQAGSLKGSL [E5A] | 2.68 |
| RNALINIRKEMKLLEQAGSLKGSL [E5I] | 3.57 |
| RNALQNIRKEMKLLEQAGSLKGSL [E5Q] | 3.34 |
| RNALSNIRKEMKLLEQAGSLKGSL [E5S] | 2.78 |
| RNALHNIRKEMKLLEQAGSLKGSL [E5H] | 2.88 |
| RNALVNIRKEMKLLEQAGSLKGSL [E5V] | 2.82 |
| RNALGNIRKEMKLLEQAGSLKGSL [E5G] | 3.21 |
| RNALENIREEMKLLEQAGSLKGSL [K9E] | 3.83 |
| RNALENIRSEMKLLEQAGSLKGSL [K9S] | 3.61 |
| RNALENIRCEMKLLEQAGSLKGSL [K9C] | 2.29 |
| RNALENIRWEMKLLEQAGSLKGSL [K9W] | 1.8 |
| RNALENIRFEMKLLEQAGSLKGSL [K9F] | 1.95 |
| RNALENIRMEMKLLEQAGSLKGSL [K9M] | 2.32 |
| RNALENIRNEMKLLEQAGSLKGSL [K9N] | 3.12 |
| RNALENIRIEMKLLEQAGSLKGSL [K9I] | 1.48 |
| RNALENIRREMKLLEQAGSLKGSL [K9R] | 3.31 |
| RNALENIRYEMKLLEQAGSLKGSL [K9Y] | 2.78 |
| RNALENIRPEMKLLEQAGSLKGSL [K9P] | 3.58 |
| RNALENIRQEMKLLEQAGSLKGSL [K9Q] | 3.29 |

| Variant | protein stability index |
| --- | --- |
| RNALENIRHEMKLLEQAGSLKGSL [K9H] | 2.9 |
| RNALENIRLEMKLLEQAGSLKGSL [K9L] | 1.94 |
| RNALENIRTEMKLLEQAGSLKGSL [K9T] | 3.43 |
| RNALENIRDEMKLLEQAGSLKGSL [K9D] | 3.57 |
| RNALENIRVEMKLLEQAGSLKGSL [K9V] | 3.78 |
| RNALENIRGEMKLLEQAGSLKGSL [K9G] | 3.61 |
| RNTLENIRKEMKLLEQAGSLKGSL [A3T] | 4.32 |
| RNPLENIRKEMKLLEQAGSLKGSL [A3P] | 4.1 |
| RNVLENIRKEMKLLEQAGSLKGSL [A3V] | 2.83 |
| RNQLENIRKEMKLLEQAGSLKGSL [A3Q] | 3.9 |
| RNELENIRKEMKLLEQAGSLKGSL [A3E] | 2.94 |
| RNWLENIRKEMKLLEQAGSLKGSL [A3W] | 2.57 |
| RNGLENIRKEMKLLEQAGSLKGSL [A3G] | 3.34 |
| RNLLENIRKEMKLLEQAGSLKGSL [A3L] | 2.64 |
| RNRLENIRKEMKLLEQAGSLKGSL [A3R] | 3.98 |
| RNNLENIRKEMKLLEQAGSLKGSL [A3N] | 3.75 |
| RNKLENIRKEMKLLEQAGSLKGSL [A3K] | 3.48 |
| RNDLENIRKEMKLLEQAGSLKGSL [A3D] | 3.75 |
| RNILENIRKEMKLLEQAGSLKGSL [A3I] | 2.31 |
| RNSLENIRKEMKLLEQAGSLKGSL [A3S] | 4.31 |
| RNYLENIRKEMKLLEQAGSLKGSL [A3Y] | 2.56 |
| RNCLENIRKEMKLLEQAGSLKGSL [A3C] | 2.45 |
| RNFLENIRKEMKLLEQAGSLKGSL [A3F] | 2.6 |
| RNMLENIRKEMKLLEQAGSLKGSL [A3M] | 3.75 |

| Variant | protein stability index |
| --- | --- |
| RNAWENIRKEMKLLEQAGSLKGSL [L4W] | 3.16 |
| RNAQENIRKEMKLLEQAGSLKGSL [L4Q] | 4.75 |
| RNASENIRKEMKLLEQAGSLKGSL [L4S] | 4.36 |
| RNAIENIRKEMKLLEQAGSLKGSL [L4I] | 3.21 |
| RNANENIRKEMKLLEQAGSLKGSL [L4N] | 4.39 |
| RNAMENIRKEMKLLEQAGSLKGSL [L4M] | 3.37 |
| RNAAENIRKEMKLLEQAGSLKGSL [L4A] | 3.93 |
| RNATENIRKEMKLLEQAGSLKGSL [L4T] | 4.37 |
| RNAFENIRKEMKLLEQAGSLKGSL [L4F] | 2.92 |
| RNAGENIRKEMKLLEQAGSLKGSL [L4G] | 3.14 |
| RNAKENIRKEMKLLEQAGSLKGSL [L4K] | 3.67 |
| RNACENIRKEMKLLEQAGSLKGSL [L4C] | 4.05 |
| RNAEENIRKEMKLLEQAGSLKGSL [L4E] | 4.65 |
| RNADENIRKEMKLLEQAGSLKGSL [L4D] | 5 |
| RNAVENIRKEMKLLEQAGSLKGSL [L4V] | 3.65 |
| RNAHENIRKEMKLLEQAGSLKGSL [L4H] | 4.15 |
| RNALENKRKEMKLLEQAGSLKGSL [I7K] | 5.08 |
| RNALENNRKEMKLLEQAGSLKGSL [I7N] | 4.37 |
| RNALENDRKEMKLLEQAGSLKGSL [I7D] | 4.75 |
| RNALENSRKEMKLLEQAGSLKGSL [I7S] | 3.69 |
| RNALENMRKEMKLLEQAGSLKGSL [I7M] | 3.29 |
| RNALENHRKEMKLLEQAGSLKGSL [I7H] | 3.74 |

Reference: the supplement of paper PMC10567573
